Molecular target: the molecule itself
Test: in vitro assembly seen by negative-stain transmission electron microscopy

B1: Rous Sarcoma Virus capsid protein (RSV CA), wild type (natural protein, Rous Sarcoma Virus (strain Prague C), UniProt P03322 240-476, looked up)
chain: PVVIKTEGPAWTPLEPKLITRLADTVRTKGLRSPITMAEVEALMSSPLLPHDVTNLMRVILGPAPYALWMDAWGVQLQTVIAAATRDPRHPANGQGRGERTNLNRLKGLADGMVGNPQGQAALLRPGELVAITASALQAFREVARLAEPAGPWADIMQGPSESFVDFANRLIKAVEGSDLPPSARAPVIIDCFRQKSQPDIQQLIRTAPSTLTTPGEIIKYVLDRQKTAPLTDQGIA
- stoichiometry N: 6
